In the Human Domainome abundance scans (Beltran et al. 2025):

B1: Unconventional myosin-Ie, residues 1051 to 1108; numbered along this chain, Q12965 (parent)
chain: PQVPQCKALYAYDAQDTDELSFNANDIIDIIKEDPSGWWTGRLRGKQGLFPNNYVTKI

Variants of: B1
Assay: abundance fitness (aPCA) (normalised: wild type 0, dead -1); higher = more abundant; growth selection in yeast, the domain comes from the species named
Details: Homo sapiens

Abundance fitness of substitutions, site by site:
Q2: W -0.12, F -0.597, C -0.193, M 0.153, G -0.102, K -0.09, V -0.173
N52: M -0.231, Y -0.209, E 0.019, F 0.002, C -0.515, I -0.123, R -0.114
R42: H -0.15, G -0.125, T -0.114, W -0.06, D -0.254, I -0.356, Q -0.028, Y -0.366, A -0.013
G48: T -0.91, L -0.399, N -0.626, C -0.477, Q -0.826, F -0.598, K -0.718, M -0.579, R -0.646
D29: E -0.072, S -0.185, Q -0.241, C -0.298, A -0.205, I -0.345, Y -0.285, R -0.387, T -0.062
T17: Y -0.238, L -0.239, H -0.137
I58: Y -0.299, T -0.484, H -0.333, S -0.15
K7: H -0.122, T -0.049, N -0.647, R -0.114, G -0.943, C -0.028
A11: N 0.022, Q 0.045, G -0.186, T -0.218, C -0.193, E -0.059
V55: M -0.534, P -0.747, T -0.111, N -0.632, I -0.27, D -0.777, A -0.387
R44: G -0.137, V -0.19, N 0.068, L -0.164, C -0.139
G37: Y -0.811, V -0.781, Q -0.448, I -0.52
L20: G -1.03, M -0.214, W -1.01, V -0.879, T -1.04
A24: E -0.052, C -0.213, W -0.481, I -0.04, R -0.068
N25: F -0.302, A -0.129, Q -0.058, W -0.224, Y -0.541, T -0.215, H -0.19, R -0.142, P -0.878
P35: M -0.075, F -0.329, W -0.231, A -0.07, V -0.085
Y10: P -0.821, A -0.186, D -0.247, H -0.135, N -0.472, Q -0.054
N23: W -0.38, M -0.026, I -0.081, S 0.004, H -0.048
G45: R -0.337, A -0.319, F -0.321, V -0.762, E -0.058, P -0.977
S36: K 0.147, F -0.279, E -0.279
E33: F -0.376, V -0.26, A -0.236, Q 0.074, P -0.751, C -0.231, K -0.368
D16: E -0.097, A -0.055, V -0.169, Y -0.093, T -0.024, N -0.052, H -0.206, C -0.057
F22: P -0.834, H -0.727, S -0.766, V -0.472, R -0.953, D -0.748, W -0.996, T -0.793
I27: V -0.085, L -0.15, K -0.228, M -0.156, F -0.274, T -0.26
P1: E -0.144, Q 0.05, C -0.374, R -0.362, H 0.305, W -0.237, L 0.072, S 0.006, D -0.164
A14: I -0.901, K -0.195, S -0.188, V -0.871
Q47: I -0.216, G -0.451, K 0.007, F -0.167
E19: K -0.136, Y 0.191, T -0.132, L -0.435, Q -0.125, C -0.123, W -0.359, V -0.382
N53: C -0.021, G -0.027, Q -0.07, T -0.275, V -0.176, S -0.262, Y -0.22, L -0.188, P -0.516
P51: F -0.302, C -0.316, S -0.287, R -0.026, D -0.114, Y -0.425
D18: G -0.056, N -0.055, V -0.257, I -0.197, M -0.091, W -0.2, H -0.279, F -0.238, Y -0.078, Q -0.152, T -0.1, A -0.162, P 0.089, E 0.052
L49: E -0.242, C -0.025, P -0.656, A -0.236
I30: G -0.719, A -0.78, E -0.864, K -1.04
D34: L -0.3, K -0.445, I -0.939, E 0.06, H -0.264
Y54: H 0.038, L -0.04, P -0.814, C -0.087, F -0.243, D -0.949, N -0.657, E -0.97, G -0.713, Q -0.43, K -0.158
K46: V -0.051, M 0.054, S -0.073, I -0.351, H -0.172
D13: P -0.399, T 0.012, C -0.134, E -0.067, I -0.082, W -0.368
I31: Y -0.25, P -0.87, Q -0.48, N -0.891
F50: W -0.944, D -0.839, E -0.911, A -0.841, K -1.07, M -0.31
T56: N -0.078, D -0.034, Y -0.197, R -0.097, A -0.075, S -0.042, G -0.255, H 0.044, C -0.074, P -0.534
K57: D -0.295, Y 0.151, L -0.442, N -0.143, M -0.34
L43: W -0.706, M 0.101, K -0.453, R -0.417, I 0.062, T -0.113, S -0.269, G -0.762
D26: H -0.94, R -0.948, F -0.726, C -0.957
G41: V -0.9, S -0.998, N -0.87
S21: E -0.247, M -0.803, Q -0.325, H -0.931, T -0.058
A8: R -0.887, N -0.853, G -0.748, P -0.732
Q5: P -0.739, R 0.023, V -0.065, T 0.01
Q15: M -0.059, V -0.193, W -0.408, N 0.037, R -0.035, F -0.291, K -0.186, Y -0.312, A -0.087
L9: M -0.213, F -0.743, S -0.3, P -0.822, A -0.315, Q -0.268, R -0.291
T40: I -0.059, S -0.082, P -1.01, N -0.382, V 0.125, F -0.479, G -0.647, Q -0.075, R -0.123
C6: A 0.097
W39: F -0.114, L -0.512, P -0.559, K -0.677
Y12: K -0.54, F -0.377, V -0.891, M -0.761, A -0.803
K32: H 0.047, C -0.14, V -0.119, D -0.242, I 0.028, Q -0.139, Y -0.105
I28: T -0.386
